Results taken from article PMC7156388.

How the values were obtained:
[1] = system: His228 (position 228, SCDKTHTCPPC)
[2] = system: His272 (position 272, VVDVSHEDPEV)
[3] = system: His289 (position 289, DGVEVHNAKTK)
[4] = system: His57 (position 57, TWNSGHIDYAD)

Adalimumab (therapeutic monoclonal IgG1 kappa antibody, anti-TNF) (Homo sapiens (recombinant fully human antibody))
pKa [1]: 6.4 | pKa [2]: 7.0 | pKa [3]: 6.2 | pKa [4]: 6.9
